From patent EP3470428A1 (Numab Innovation AG, dated 2019)
Several values for one entry are separate records, joined by “and”; a condition that tells them apart may be missing. Equal entries are not always repeated. Where two headings read alike, the source gives them in different places. Values belong to the binder of their own block, whether it stands above or below them.

Legend:
[1] = biological target: T1, human CD137 expressed on cells (human, UniProt Q07011 24-255); test: cell-based or functional assay
[2] = biological target: T1, human CD137 expressed on cells; test: cell-based or functional assay; remark: listed apart in the source
[3] = biological target: T1, human CD137 expressed on cells; test: cell-based or functional assay; remark: listed apart in the source
[4] = biological target: T1, human CD137 expressed on cells; test: cell-based or functional assay; remark: listed apart in the source
[5] = biological target: T1, human CD137 expressed on cells; test: cell-based or functional assay; remark: listed apart in the source
[6] = biological target: T1, human CD137 expressed on cells; test: cell-based or functional assay; remark: listed apart in the source
[7] = biological target: T1, human CD137 expressed on cells; test: cell-based or functional assay; remark: listed apart in the source
biotinylated human PD-L1 [8] = biological target: T2, biotinylated human PD-L1 (human, UniProt Q9NZQ7 19-238, limits assumed, biotinylated); test: competition ELISA; coated human PD-1 as competitor; biotinylated human PD-L1 pre-incubated with inhibitor
T2 construct: also called biotinylated PD-L1

[9] = biological target: T1, human CD137 expressed on cells; test: cell-based or functional assay; remark: listed apart in the source
biotinylated human PD-L1 [10] = biological target: T2, biotinylated human PD-L1; test: competition ELISA; coated human B7.1 as competitor; biotinylated PD-L1 pre-incubated with inhibitor
[11] = biological target: human PD-L1 expressed on cells (human, UniProt Q9NZQ7 19-290); test: cell-based or functional assay
human serum albumin = biological target: T3, human serum albumin (human, UniProt P02768 25-609); test: SPR (Biacore T200); SA amine-coupled; pH 5.5
T3 construct: Amine-coupled to a CM5 chip; assay at pH 5.5; also called HSA; human SA

[12] = biological target: human PD-L1-Fc chimeric protein (human, UniProt Q9NZQ7 19-239); test: SPR (Biacore T200); PD-L1-Fc captured by anti-human Fc

EC50 in ng/ml, CD137 activation, NFkB-luciferase Jurkat reporter assay, PD-L1 expressing CHO cells, 24h [1]: 46.6 ng/mL
EC50 in ng/ml, CD137 activation, NFkB-luciferase Jurkat reporter assay, PD-L1 expressing CHO cells, 24h, + HSA [1]: 78.2 ng/mL
EC50 in ng/ml, CD137 activation, NFkB-luciferase Jurkat reporter assay, HCC827 with IFNy stimulation, 24h [2]: 52.8 ng/mL
EC50 in ng/ml, CD137 activation, NFkB-luciferase Jurkat reporter assay, HCC827 without IFNy stimulation, 24h [2]: 47.5 ng/mL
EC50 in ng/ml, CD137 activation, NFkB-luciferase Jurkat reporter assay, CHO-PD-L1 cells [3]: 79.1 ng/mL
EC50 in ng/ml, CD137 activation, NFkB-luciferase Jurkat reporter assay, PD-L1 expressing CHO cells, 6h [4]: 56.5 ng/mL
EC50 in ng/ml, CD137 activation, NFkB-luciferase Jurkat reporter assay, PD-L1 expressing CHO cells, 6h, + HSA [4]: 77.7 ng/mL
EC50 in ng/ml, CD137 activation, NFkB-luciferase Jurkat reporter assay, CHO-PD-L1 cells [5]: 79.5 ng/mL and 104 ng/mL and 86.5 ng/mL
EC50 in ng/ml, CD137 activation, NFkB-luciferase Jurkat reporter assay, HCC827 cells without IFNg [6]: 212 ng/mL and 110 ng/mL and 112 ng/mL
EC50 in ng/ml, CD137 activation, NFkB-luciferase Jurkat reporter assay, HCC827 cells stimulated with IFNg [7]: 114 ng/mL and 145 ng/mL and 108 ng/mL
B1: Urelumab (antibody, V domains shown)
VH: QVQLQQWGAGLLKPSETLSLTCAVYGGSFSGYYWSWIRQSPEKGLEWIGEINHGGYVTYNPSLESRVTISVDTSKNQFSLKLSSVTAADTAVYYCARDYGPGNYDWYFDLWGRGTLVTVSS
VL: EIVLTQSPATLSLSPGERATLSCRASQSVSSYLAWYQQKPGQAPRLLIYDASNRATGIPARFSGSGSGTDFTLTISSLEPEDFAVYYCQQRSNWPPALTFGGGTKVEIK

IC50 (biotinylated human PD-L1 [8]): 0.0095 µg/mL
max. activation (%), NF-kB reporter gene, CHO-PD-L1; HSA: no [9]: 432%
EC50 in ng/ml, CD137 activation, NFkB-luciferase Jurkat reporter assay, CHO-PD-L1 cells [3]: 33.7 ng/mL
IC50 (biotinylated human PD-L1 [10]): 0.0093 µg/mL
IC50 (ng/ml), neutralization of PD-L1/PD-1 interaction, NFAT-luciferase reporter gene assay [11]: 88.5 ng/mL
B2: PRO951: 38-27-C05 sc02 scDb-i/33-03-G02 sc01 scDb-o (bispecific antibody)
chain: DIQMTQSPSSLSASVGDRVTITCQASQSINDYLAWYQQKPGKAPKLLIYKASTLASGVPSRFSGSGSGTDFTLTISSLQPEDFATYYCQQGYIITDIDNVFGTGTKVTVLGGGGGSEVQLVESGGGLVQPGGSLRLSCAASGFSFNNDYDMCWVRQAPGKGLEWIGCIDTGDGSTYYASWAKGRFTISRDNSKNTVYLQMNSLRAEDTAVYYCAREAASSSGYGMGYFDLWGQGTLVTVSSGGGGSGGGGSGGGGSGGGGSIQMTQSPSSLSASVGDRVTITCQSSQSVYDNNWLAWYQQKPGKAPKLLIYRASNLASGVPSRFSGSGSGTDFTLTISSLQPEDFATYYCQGTYLSSNWYWAFGTGTKVTVLGGGGGSQVQLQESGPGLVKPSETLSLTCKVSGFSFSSGYDMCWIRQPPGKGLEWIGCVVAGSVDITYYASWAKGRVTISVDSSKNQFSLKLSSVTAADTAVYYCARKDAYSDAFNLWGQGTLVTVSS
notes: anti-PD-L1xCD137 scDb

binding result (human serum albumin): binds
binding result [12]: binds
B3: PRO966 (= PRO1052): 38_27_C05 sc01 scDb-i/33-03-G02 sc01 scDb-o/19-01-H04-sc03 scFv (other)
chain: DIQMTQSPSSLSASVGDRVTITCQASQSINDYLAWYQQKPGKAPKLLIYKASTLASGVPSRFSGSGSGTDFTLTISSLQPEDFATYYCQQGYIITDIDNVFGTGTKVTVLGGGGGSQVQLQESGPGLVKPSETLSLTCKVSGFSFNNDYDMCWIRQPPGKGLEWIGCIDTGDGSTYYASWAKGRVTISVDSSKNQFSLKLSSVTAADTAVYYCAREAASSSGYGMGYFDLWGQGTLVTVSSGGGGSGGGGSGGGGSGGGGSIQMTQSPSSLSASVGDRVTITCQSSQSVYDNNWLAWYQQKPGKAPKLLIYRASNLASGVPSRFSGSGSGTDFTLTISSLQPEDFATYYCQGTYLSSNWYWAFGTGTKVTVLGGGGGSQVQLQESGPGLVKPSETLSLTCKVSGFSFSSGYDMCWIRQPPGKGLEWIGCVVAGSVDITYYASWAKGRVTISVDSSKNQFSLKLSSVTAADTAVYYCARKDAYSDAFNLWGQGTLVTVSSGGGGSGGGGSIQMTQSPSSLSASVGDRVTITCQSSESVYSNNQLSWYQQKPGQPPKLLIYDASDLASGVPSRFSGSGSGTDFTLTISSLQPEDFATYYCAGGFSSSSDTAFGGGTKLTVLGGGGGSGGGGSGGGGSGGGGSEVQLVESGGGLVQPGGSLRLSCAASGFSLSSNAMGWVRQAPGKGLEYIGIISVGGFTYYASWAKGRFTISRDNSKNTVYLQMNSLRAEDTATYFCARDRHGGDSSGAFYLWGQGTLVTVSS
notes: Trispecific scTriabody (scDb-scFv)
